Each block holds one binder with its values, some of them ahead of it.
B3: CoraFluor-1-labeled KLHL11_(BTB-BACK) (domain or fragment, human, UniProt Q9NVR0 67-340, looked up)
chain: EAEDFECSSHCSELSWRQNEQRRQGLFCDITLCFGGAGGREFRAHRSVLAAATEYFTPLLSGQFSESRSGRVEMRKWSSEPGPEPDTVEAVIEYMYTGRIRVSTGSVHEVLELADRFLLIRLKEFCGEFLKKKLHLSNCVAIHSLAHMYTLSQLALKAADMIRRNFHKVIQDEEFYTLPFHLIRDWLSDLEITVDSEEVLFETVLKWVQRNAEERERYFEELFKLLRLSQMKPTYLTRHVKPERLVANNEVCVKLVADAVERHALRAENIQSGT
modifications: CoraFluor-1 by direct acylation with CoraFluor-1-Pfp (sites not given)
notes: human KLHL11, Uniprot Q9NVR0, residues 67–340, vector pNIC28-Bsa4; source: E. coli BL21(DE3)-pRARE2, purified (nickel sepharose, TEV cleavage, SEC), labeled with CoraFluor-1-Pfp; not shown: His6, N-terminal, cleaved
B5: CUL3_(NTDΔ22) (CUL3 residues 23–388, I342R L346D) (domain or fragment, human, UniProt Q13618 23-388, looked up)
chain: MTMDEKYVNSIWDLLKNAIQEIQRKNNSGLSFEELYRNAYTMVLHKHGEKLYTGLREVVTEHLINKVREDVLNSLNNNFLQTLNQAWNDHQTAMVMIRDILMYMDRVYVQQNNVENVYNLGLIIFRDQVVRYGCIRDHLRQTLLDMIARERKGEVVDRGAIRNACQMLMILGLEGRSVYEEDFEAPFLEMSAEFFQMESQKFLAENSASVYIKKVEARINEEIERVMHCLDKSTEEPIVKVVERELISKHMKTIVEMENSGLVHMLKNGKTEDLGCMYKLFSRVPNGLKTMCECMSSYLREQGKALVSEEGEGKNPVDYRQGLDDLKSRFDRFLLESFNNDRLFKQTIAGDFEYFLNLNSRSPEYL
notes: human CUL3, Uniprot Q13618, residues 23–388, vector pNIC-CTHF, with stabilising mutations I342R and L346D; also called CUL3_(NTDΔN22); source: E. coli BL21(DE3)-pRARE2, purified (nickel sepharose, TEV cleavage, SEC); not shown: His6, C-terminal, cleaved; FLAG, C-terminal, cleaved

Key:
Conditions in all cases: both partners purified
[1] = target: T1, CUL3 N-terminal domain (CUL3NTD, residues 1-388), unlabeled (human, UniProt Q13618 1-388, I342R | L346D); assay: BLI; Octet RED384; biotinylated KEAP1BTB-3-box immobilised on streptavidin tips; analyte in 50 mM HEPES, 300 mM NaCl, 0.5 mM TCEP, 10 mM DTT, 0.01% TWEEN-20; kinetic global fit, 1:1 model; apparent
T1 construct: human CUL3 N-terminal domain, residues 1-388, in vector pNIC-CTHF, with the stabilising mutations I342R and L346D; source: E. coli BL21(DE3)-pRARE2, purified (nickel sepharose, TEV cleavage, SEC); not shown: His6, C-terminal, cleaved; FLAG, C-terminal, cleaved

[2] = target: T1, CUL3 N-terminal domain (CUL3NTD, …); assay: as above; remark: listed apart in the source
[3] = target: T2, full length CUL3-RBX1 complex (human | , UniProt Q13618 1-768; P62877 1-108); assay: as above
T2 sequence (Q13618 whole entry, chain 1 of 2, the tested form may be a part): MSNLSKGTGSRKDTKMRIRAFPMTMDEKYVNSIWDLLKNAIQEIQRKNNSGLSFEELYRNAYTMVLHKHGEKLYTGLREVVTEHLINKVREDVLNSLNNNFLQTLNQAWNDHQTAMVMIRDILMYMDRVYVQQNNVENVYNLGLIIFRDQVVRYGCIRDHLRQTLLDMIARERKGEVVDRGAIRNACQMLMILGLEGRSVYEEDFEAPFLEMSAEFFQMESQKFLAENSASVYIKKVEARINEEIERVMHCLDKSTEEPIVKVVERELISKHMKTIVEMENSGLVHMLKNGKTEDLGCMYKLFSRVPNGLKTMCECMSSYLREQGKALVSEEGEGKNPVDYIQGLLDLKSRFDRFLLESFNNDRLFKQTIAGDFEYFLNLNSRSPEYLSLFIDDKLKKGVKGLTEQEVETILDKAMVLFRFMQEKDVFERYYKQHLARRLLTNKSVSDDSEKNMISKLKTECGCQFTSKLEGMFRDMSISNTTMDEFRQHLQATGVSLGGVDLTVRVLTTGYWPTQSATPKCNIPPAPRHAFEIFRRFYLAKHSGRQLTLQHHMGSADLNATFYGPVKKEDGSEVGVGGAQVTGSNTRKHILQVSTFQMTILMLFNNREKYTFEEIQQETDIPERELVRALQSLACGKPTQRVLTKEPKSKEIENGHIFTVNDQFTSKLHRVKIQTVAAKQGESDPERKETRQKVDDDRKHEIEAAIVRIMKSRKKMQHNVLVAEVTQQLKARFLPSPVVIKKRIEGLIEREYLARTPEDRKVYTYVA
T2 sequence (P62877 whole entry, chain 2 of 2, the tested form may be a part): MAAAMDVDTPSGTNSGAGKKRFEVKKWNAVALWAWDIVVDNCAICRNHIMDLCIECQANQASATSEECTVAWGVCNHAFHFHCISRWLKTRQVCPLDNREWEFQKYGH

[4] = target: T1, CUL3 N-terminal domain (CUL3NTD, …); assay: BLI; Octet RED384; biotinylated KEAP1BTB-3-box immobilised on streptavidin tips; analyte in 50 mM HEPES, 300 mM NaCl, 0.5 mM TCEP, 10 mM DTT, 0.01% TWEEN-20; steady-state equilibrium analysis, 1:1 model; apparent
[5] = target: T2, full length CUL3-RBX1 complex; assay: as above
AF488-labeled CUL3NTD [6] = target: T3, AF488-labeled CUL3NTD (human, UniProt Q13618 1-388, I342R | L346D, AF488 by direct acylation with AF488-Tfp (sites not given)); assay: FRET or BRET; TR-FRET protein displacement assay: CoraFluor-1-labeled KLHL11 (3 nM at 1.5x) and AF488-labeled CUL3NTD (45 nM at 1.5x); unlabeled protein titrated 1:3, 12 points, cmax 25 uM; 2 h at room temperature; 25 mM HEPES, 150 mM NaCl, 1 mM DTT, 0.5 mg/mL BSA, 0.005% TWEEN-20, pH 7.5; KD from IC50 by Cheng-Prusoff
T3 construct: human CUL3 N-terminal domain, residues 1-388, in vector pNIC-CTHF, with the stabilising mutations I342R and L346D; Fluorescent tracer of the TR-FRET assays; also called AF488-CUL3NTD; source: E. coli BL21(DE3)-pRARE2, purified (nickel sepharose, TEV cleavage, SEC), labeled with AF488-Tfp; not shown: His6, C-terminal, cleaved; FLAG, C-terminal, cleaved

AF488-labeled CUL3NTD [7] = target: T4, AF488-labeled CUL3NTD (human, UniProt Q13618 1-388, I342R | L346D, AF488 by direct acylation with AF488-Tfp (sites not given)); assay: FRET or BRET; TR-FRET dissociation: pre-equilibrated 20 nM CoraFluor-1-KEAP1 + 300 nM AF488-CUL3NTD, or 2 nM CoraFluor-1-KLHL11 + 45 nM AF488-CUL3NTD; 25 μM unlabeled KLHL11 added, read for 30 min; one-phase decay
T4 construct: human CUL3, Uniprot Q13618, residues 1–388, vector pNIC-CTHF, with stabilising mutations I342R and L346D; also called AF488-CUL3NTD; source: E. coli BL21(DE3)-pRARE2, purified (nickel sepharose, TEV cleavage, SEC), labeled with AF488-Tfp; not shown: His6, C-terminal, cleaved; FLAG, C-terminal, cleaved

[8] = target: B5; assay: FRET or BRET; TR-FRET protein displacement assay: CoraFluor-1-labeled KLHL11_(BTB-BACK) + AF488-labeled CUL3NTD, unlabeled protein titrated (cmax 25 μM); assay buffer pH 7.5, 2 h, room temperature; KD from IC50 by Cheng-Prusoff
AF488-labeled CUL3NTD [9] = target: T4, AF488-labeled CUL3NTD; assay: FRET or BRET; TR-FRET saturation binding: AF488-labeled CUL3NTD titrated (cmax 1000 nM) onto CoraFluor-1-labeled KEAP1 or KLHL11; 25 mM HEPES, 150 mM NaCl, 1 mM DTT, 0.5 mg/mL BSA, 0.005% TWEEN-20, pH 7.5; 2 h, room temperature; One Site – Total Binding model
[10] = target: T1, CUL3 N-terminal domain (CUL3NTD, …); assay: FRET or BRET; TR-FRET protein displacement assay: CoraFluor-1-labeled KLHL11 (3 nM at 1.5x) and AF488-labeled CUL3NTD (45 nM at 1.5x); unlabeled protein titrated 1:3, 12 points, cmax 25 uM; 2 h at room temperature; 25 mM HEPES, 150 mM NaCl, 1 mM DTT, 0.5 mg/mL BSA, 0.005% TWEEN-20, pH 7.5; KD from IC50 by Cheng-Prusoff
[11] = target: CoraFluor-1-labeled KEAP1FL (full-length, untagged KEAP1, residues 1–624) (human, UniProt Q14145 1-624, CoraFluor-1 by direct acylation with CoraFluor-1-Pfp (sites not given)); assay: FRET or BRET; TR-FRET protein displacement assay: CoraFluor-1-labeled KEAP1FL + AF488-labeled CUL3NTD, unlabeled protein titrated (cmax 25 μM); assay buffer pH 7.5, 2 h, room temperature; KD from IC50 by Cheng-Prusoff
Chain of CoraFluor-1-labeled KEAP1FL (full-length, untagged KEAP1, residues 1–624) (Q14145 whole entry, the tested form may be a part): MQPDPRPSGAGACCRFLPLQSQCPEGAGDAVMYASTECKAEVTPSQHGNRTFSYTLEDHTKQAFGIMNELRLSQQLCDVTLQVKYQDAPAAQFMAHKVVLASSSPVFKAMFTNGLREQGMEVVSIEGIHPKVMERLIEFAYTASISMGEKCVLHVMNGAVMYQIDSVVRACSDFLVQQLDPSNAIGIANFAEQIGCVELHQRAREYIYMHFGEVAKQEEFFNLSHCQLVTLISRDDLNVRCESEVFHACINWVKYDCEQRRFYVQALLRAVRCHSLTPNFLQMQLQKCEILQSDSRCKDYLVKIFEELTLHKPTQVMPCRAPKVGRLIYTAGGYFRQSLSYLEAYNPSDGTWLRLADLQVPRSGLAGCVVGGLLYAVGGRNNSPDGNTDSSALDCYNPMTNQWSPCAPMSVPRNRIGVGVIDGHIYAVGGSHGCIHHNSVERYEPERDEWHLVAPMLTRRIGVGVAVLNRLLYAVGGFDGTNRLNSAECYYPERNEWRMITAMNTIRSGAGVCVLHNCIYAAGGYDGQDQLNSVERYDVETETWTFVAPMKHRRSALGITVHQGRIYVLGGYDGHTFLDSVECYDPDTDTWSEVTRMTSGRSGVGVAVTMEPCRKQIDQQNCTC

[12] = target: B3; assay: FRET or BRET; TR-FRET protein displacement assay: CoraFluor-1-labeled KLHL11_(BTB-BACK) + AF488-labeled CUL3NTD, unlabeled protein titrated (cmax 25 μM); assay buffer pH 7.5, 2 h, room temperature; KD from IC50 by Cheng-Prusoff

koff [1]: 0.189 s⁻¹
kon [1]: 36600 M⁻¹ s⁻¹
Kd [2]: 5200 nM
Kd [3]: 5600 nM
koff [3]: 0.187 s⁻¹
kon [3]: 33200 M⁻¹ s⁻¹
Kd [4]: 2900 nM
Kd [5]: 4400 nM
B1: Biotinylated KEAP1 BTB-3-box (residues 48-213) (domain or fragment, human, UniProt Q14145 48-213, looked up)
chain: GNRTFSYTLEDHTKQAFGIMNELRLSQQLCDVTLQVKYQDAPAAQFMAHKVVLASSSPVFKAMFTNGLREQGMEVVSIEGIHPKVMERLIEFAYTASISMGEKCVLHVMNGAVMYQIDSVVRACSDFLVQQLDPSNAIGIANFAEQIGCVELHQRAREYIYMHFGE
modifications: biotin on the avi tag

Kd (AF488-labeled CUL3NTD [6]): 14 nM
B2: KLHL11 BTB-BACK (residues 67-340), unlabeled (domain or fragment, human, UniProt Q9NVR0 67-340, looked up)
chain: EAEDFECSSHCSELSWRQNEQRRQGLFCDITLCFGGAGGREFRAHRSVLAAATEYFTPLLSGQFSESRSGRVEMRKWSSEPGPEPDTVEAVIEYMYTGRIRVSTGSVHEVLELADRFLLIRLKEFCGEFLKKKLHLSNCVAIHSLAHMYTLSQLALKAADMIRRNFHKVIQDEEFYTLPFHLIRDWLSDLEITVDSEEVLFETVLKWVQRNAEERERYFEELFKLLRLSQMKPTYLTRHVKPERLVANNEVCVKLVADAVERHALRAENIQSGT
notes: human KLHL11 BTB and BACK domains, residues 67-340, in vector pNIC28-Bsa4; source: E. coli BL21(DE3)-pRARE2, purified (nickel sepharose, TEV cleavage, SEC); not shown: His6, N-terminal, cleaved

Kd [10]: 8 nM
B4: CoraFluor-1-labeled KLHL11 BTB-BACK (domain or fragment, human, UniProt Q9NVR0 67-340, looked up)
chain: EAEDFECSSHCSELSWRQNEQRRQGLFCDITLCFGGAGGREFRAHRSVLAAATEYFTPLLSGQFSESRSGRVEMRKWSSEPGPEPDTVEAVIEYMYTGRIRVSTGSVHEVLELADRFLLIRLKEFCGEFLKKKLHLSNCVAIHSLAHMYTLSQLALKAADMIRRNFHKVIQDEEFYTLPFHLIRDWLSDLEITVDSEEVLFETVLKWVQRNAEERERYFEELFKLLRLSQMKPTYLTRHVKPERLVANNEVCVKLVADAVERHALRAENIQSGT
modifications: CoraFluor-1 by direct acylation with CoraFluor-1-Pfp (sites not given)
notes: human KLHL11 BTB and BACK domains, residues 67-340, in vector pNIC28-Bsa4; TR-FRET donor protein; source: E. coli BL21(DE3)-pRARE2, purified (nickel sepharose, TEV cleavage, SEC), labeled with CoraFluor-1-Pfp; not shown: His6, N-terminal, cleaved

Continued, binder first:

Binder: B3
koff (AF488-labeled CUL3NTD [7]): 0.00381 s⁻¹
Kd [8]: 1840 nM
Kd (AF488-labeled CUL3NTD [9]): 20 nM

Binder: B5
Kd [11]: 13800 nM
fold decrease of affinity against CUL3NTD [12]: > 200 fold
